What was measured:
[1] = target: T1, PRP2 (DHX16) 137-1022;PPIL4 (Homo sapiens;Homo sapiens, UniProt O60231;Q8WUA2 137-1022;1-492, |); experiment: EMSA; purified co-expressed complex; 2 mM Mg2+; EMSA: 50 nM RNA, 0.1-8 uM protein, 20 mM HEPES-KOH pH 7.5, 50 mM KCl, 2 mM MgCl2, 0.1 mg/ml BSA, 5% glycerol, 30 min room temperature; 5% native gel in Tris-glycine; conditions: protein: recombinant;recombinant; tags: N-terminal Twin-StrepII;untagged (Twin-StrepII removed by HRV-3C); copies: 1;1; label: Cy5 at 3' end of S3; 18 bp duplex, 3' overhang 30 nt on S4
T1 sequence 1: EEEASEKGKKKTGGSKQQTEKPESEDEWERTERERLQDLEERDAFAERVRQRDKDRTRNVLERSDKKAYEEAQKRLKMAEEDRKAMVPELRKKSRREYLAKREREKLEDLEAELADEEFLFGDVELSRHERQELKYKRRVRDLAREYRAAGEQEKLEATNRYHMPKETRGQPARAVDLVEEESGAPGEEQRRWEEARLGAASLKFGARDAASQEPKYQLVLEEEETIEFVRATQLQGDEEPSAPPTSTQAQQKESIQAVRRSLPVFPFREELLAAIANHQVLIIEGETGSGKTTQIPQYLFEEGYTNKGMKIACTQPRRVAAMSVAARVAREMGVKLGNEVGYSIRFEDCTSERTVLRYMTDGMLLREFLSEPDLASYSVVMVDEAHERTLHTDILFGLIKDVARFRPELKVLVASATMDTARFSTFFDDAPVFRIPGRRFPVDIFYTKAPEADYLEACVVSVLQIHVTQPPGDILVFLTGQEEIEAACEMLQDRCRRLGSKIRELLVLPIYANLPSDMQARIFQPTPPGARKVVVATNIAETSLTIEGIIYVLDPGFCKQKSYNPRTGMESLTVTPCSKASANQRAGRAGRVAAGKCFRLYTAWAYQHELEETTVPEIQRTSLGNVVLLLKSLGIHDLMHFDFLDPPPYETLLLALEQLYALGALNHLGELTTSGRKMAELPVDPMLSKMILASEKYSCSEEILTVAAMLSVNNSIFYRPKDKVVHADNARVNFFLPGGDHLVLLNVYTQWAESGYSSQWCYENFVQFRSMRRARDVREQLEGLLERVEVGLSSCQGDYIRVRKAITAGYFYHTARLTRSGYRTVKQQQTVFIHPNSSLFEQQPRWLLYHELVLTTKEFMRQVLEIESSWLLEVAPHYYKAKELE
T1 sequence 2: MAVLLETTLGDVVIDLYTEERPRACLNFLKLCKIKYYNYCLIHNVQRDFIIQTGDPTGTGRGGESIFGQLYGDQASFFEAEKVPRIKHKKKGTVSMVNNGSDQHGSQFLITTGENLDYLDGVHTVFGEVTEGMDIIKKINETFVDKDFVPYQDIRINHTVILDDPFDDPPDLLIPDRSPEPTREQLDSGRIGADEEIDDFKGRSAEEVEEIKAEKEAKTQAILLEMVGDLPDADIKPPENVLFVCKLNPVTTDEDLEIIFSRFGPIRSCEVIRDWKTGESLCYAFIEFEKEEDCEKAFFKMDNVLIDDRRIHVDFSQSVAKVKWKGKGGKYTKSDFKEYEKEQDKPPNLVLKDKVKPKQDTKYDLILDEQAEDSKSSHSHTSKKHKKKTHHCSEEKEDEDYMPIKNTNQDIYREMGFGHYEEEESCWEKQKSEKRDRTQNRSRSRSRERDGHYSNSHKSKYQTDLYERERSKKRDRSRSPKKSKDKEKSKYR

PRP2 (DHX16) 137-1022 = target: T2, PRP2 (DHX16) 137-1022 (Homo sapiens, UniProt O60231 137-1022); experiment: EMSA; 2 mM Mg2+; EMSA: 50 nM RNA, 0.1-8 uM protein, 20 mM HEPES-KOH pH 7.5, 50 mM KCl, 2 mM MgCl2, 0.1 mg/ml BSA, 5% glycerol, 30 min room temperature; 5% native gel in Tris-glycine; conditions: protein: recombinant; tags: N-terminal Twin-StrepII; label: Cy5 at 3' end of S3; 18 bp duplex, 3' overhang 30 nt on S4
T2 sequence: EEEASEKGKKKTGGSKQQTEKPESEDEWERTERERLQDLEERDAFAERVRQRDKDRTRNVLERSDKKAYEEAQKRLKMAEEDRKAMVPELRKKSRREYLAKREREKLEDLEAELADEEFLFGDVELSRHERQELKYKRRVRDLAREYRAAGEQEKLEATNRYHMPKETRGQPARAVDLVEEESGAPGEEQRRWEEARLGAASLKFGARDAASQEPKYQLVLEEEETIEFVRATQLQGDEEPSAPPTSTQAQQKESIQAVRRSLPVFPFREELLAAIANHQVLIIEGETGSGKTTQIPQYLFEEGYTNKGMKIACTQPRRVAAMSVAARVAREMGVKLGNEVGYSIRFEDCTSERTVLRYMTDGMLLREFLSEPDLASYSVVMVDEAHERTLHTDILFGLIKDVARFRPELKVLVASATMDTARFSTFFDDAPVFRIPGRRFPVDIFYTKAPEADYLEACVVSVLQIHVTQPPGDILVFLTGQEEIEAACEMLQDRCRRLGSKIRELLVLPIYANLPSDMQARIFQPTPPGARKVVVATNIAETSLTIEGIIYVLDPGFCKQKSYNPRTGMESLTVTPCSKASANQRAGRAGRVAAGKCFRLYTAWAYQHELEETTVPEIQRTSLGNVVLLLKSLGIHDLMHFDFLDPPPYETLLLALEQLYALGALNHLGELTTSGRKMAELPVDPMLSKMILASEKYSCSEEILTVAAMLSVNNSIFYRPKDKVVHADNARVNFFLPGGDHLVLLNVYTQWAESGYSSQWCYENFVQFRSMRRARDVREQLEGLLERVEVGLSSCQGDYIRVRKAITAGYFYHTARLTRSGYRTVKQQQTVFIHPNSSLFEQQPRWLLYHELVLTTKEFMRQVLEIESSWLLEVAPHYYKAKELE

GPKOW = target: T3, GPKOW (Homo sapiens, UniProt Q92917 1-476); experiment: as above; conditions: protein: recombinant; tags: N-terminal Twin-StrepII; label: Cy5 at 3' end of S3; 18 bp duplex, 3' overhang 30 nt on S4
T3 sequence: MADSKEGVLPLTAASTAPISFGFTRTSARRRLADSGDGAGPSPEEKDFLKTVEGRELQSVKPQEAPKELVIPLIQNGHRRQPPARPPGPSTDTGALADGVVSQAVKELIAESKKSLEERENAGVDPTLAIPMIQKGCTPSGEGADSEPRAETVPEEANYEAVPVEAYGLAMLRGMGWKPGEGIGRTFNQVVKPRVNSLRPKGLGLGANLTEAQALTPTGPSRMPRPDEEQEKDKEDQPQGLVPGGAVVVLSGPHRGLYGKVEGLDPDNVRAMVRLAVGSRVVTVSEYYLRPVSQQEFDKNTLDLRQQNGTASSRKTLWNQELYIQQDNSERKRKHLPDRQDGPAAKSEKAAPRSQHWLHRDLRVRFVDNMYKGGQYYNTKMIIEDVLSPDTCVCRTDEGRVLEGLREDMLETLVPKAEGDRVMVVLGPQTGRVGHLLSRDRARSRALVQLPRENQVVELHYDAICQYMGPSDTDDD

PPIL4 = target: T4, PPIL4 (Homo sapiens, UniProt Q8WUA2 1-492); experiment: EMSA; no PRP2; 2 mM Mg2+; EMSA: 50 nM RNA, 0.1-8 uM protein, 20 mM HEPES-KOH pH 7.5, 50 mM KCl, 2 mM MgCl2, 0.1 mg/ml BSA, 5% glycerol, 30 min room temperature; 5% native gel in Tris-glycine; conditions: protein: recombinant; tags: untagged (Twin-StrepII removed by HRV-3C); label: Cy5 at 3' end of S3; 18 bp duplex, 3' overhang 30 nt on S4
T4 sequence: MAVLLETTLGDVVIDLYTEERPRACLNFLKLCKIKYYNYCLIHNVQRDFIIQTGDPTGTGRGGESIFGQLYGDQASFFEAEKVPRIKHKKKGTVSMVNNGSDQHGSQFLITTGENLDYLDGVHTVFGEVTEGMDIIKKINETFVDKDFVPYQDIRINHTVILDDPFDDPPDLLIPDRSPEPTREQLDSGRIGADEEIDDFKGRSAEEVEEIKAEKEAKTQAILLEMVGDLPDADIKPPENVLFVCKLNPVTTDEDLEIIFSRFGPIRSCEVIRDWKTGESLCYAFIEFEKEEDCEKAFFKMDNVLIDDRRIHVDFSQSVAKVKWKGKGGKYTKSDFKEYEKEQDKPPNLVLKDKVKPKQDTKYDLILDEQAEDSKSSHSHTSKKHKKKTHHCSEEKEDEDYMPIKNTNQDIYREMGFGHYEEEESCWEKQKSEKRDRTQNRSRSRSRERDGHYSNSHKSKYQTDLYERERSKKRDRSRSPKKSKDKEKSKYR

[2] = target: T5, PRP2 (DHX16) 137-1022;GPKOW (Homo sapiens;Homo sapiens, UniProt O60231;Q92917 137-1022;1-476, |); experiment: EMSA; complex assembled in vitro; 2 mM Mg2+; EMSA: 50 nM RNA, 0.1-8 uM protein, 20 mM HEPES-KOH pH 7.5, 50 mM KCl, 2 mM MgCl2, 0.1 mg/ml BSA, 5% glycerol, 30 min room temperature; 5% native gel in Tris-glycine; conditions: protein: recombinant;recombinant; tags: N-terminal Twin-StrepII;N-terminal Twin-StrepII; copies: 1;1; label: Cy5 at 3' end of S3; 18 bp duplex, 3' overhang 30 nt on S4
T5 sequence 1: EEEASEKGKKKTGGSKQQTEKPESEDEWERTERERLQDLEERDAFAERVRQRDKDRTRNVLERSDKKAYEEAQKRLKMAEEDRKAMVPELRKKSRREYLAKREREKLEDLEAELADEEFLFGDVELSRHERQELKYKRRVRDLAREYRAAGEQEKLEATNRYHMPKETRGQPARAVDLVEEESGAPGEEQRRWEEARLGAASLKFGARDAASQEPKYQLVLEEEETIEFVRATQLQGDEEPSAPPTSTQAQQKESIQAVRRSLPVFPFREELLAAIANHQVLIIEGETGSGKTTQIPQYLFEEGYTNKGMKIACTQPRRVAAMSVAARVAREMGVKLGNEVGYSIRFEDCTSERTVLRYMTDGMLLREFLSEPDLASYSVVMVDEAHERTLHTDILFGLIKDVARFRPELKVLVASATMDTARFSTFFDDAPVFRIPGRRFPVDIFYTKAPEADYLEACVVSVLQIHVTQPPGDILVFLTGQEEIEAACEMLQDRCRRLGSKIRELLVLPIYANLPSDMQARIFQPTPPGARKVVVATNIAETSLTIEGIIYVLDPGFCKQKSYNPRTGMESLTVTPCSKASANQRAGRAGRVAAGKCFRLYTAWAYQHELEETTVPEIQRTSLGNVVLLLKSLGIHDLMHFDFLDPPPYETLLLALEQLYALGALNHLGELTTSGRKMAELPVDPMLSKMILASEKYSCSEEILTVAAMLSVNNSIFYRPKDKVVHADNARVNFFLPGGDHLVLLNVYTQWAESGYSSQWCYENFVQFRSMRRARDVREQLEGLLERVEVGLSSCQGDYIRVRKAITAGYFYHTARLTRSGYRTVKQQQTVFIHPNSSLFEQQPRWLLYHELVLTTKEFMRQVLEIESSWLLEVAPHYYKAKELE
T5 sequence 2: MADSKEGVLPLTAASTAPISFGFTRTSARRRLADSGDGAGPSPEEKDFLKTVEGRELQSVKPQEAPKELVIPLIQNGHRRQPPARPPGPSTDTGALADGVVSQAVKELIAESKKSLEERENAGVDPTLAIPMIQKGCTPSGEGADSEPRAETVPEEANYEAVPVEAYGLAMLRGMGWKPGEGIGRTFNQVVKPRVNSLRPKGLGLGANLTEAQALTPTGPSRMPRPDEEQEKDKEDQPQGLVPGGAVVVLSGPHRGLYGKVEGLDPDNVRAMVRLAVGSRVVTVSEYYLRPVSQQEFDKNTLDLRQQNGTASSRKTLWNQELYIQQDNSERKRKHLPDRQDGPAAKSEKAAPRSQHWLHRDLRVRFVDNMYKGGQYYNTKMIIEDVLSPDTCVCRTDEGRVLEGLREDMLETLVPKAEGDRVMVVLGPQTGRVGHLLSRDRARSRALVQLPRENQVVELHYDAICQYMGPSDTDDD

Measured: binding result

B1: Cy5 RNA duplex with 30-nt 3' overhang (dsRNA)
RNA 1: GCGCCUACGGAGCUGGUGGCGUAGGCGCAAAAAAAAAAAAAAAAAAAA
RNA 2: CACCAGCUCCGUAGGCGC
binds: all assays above

Source: paper PMC10208982, “Structural basis of catalytic activation in human splicing” (Nature, 2023)
